Three molecules from paper PMC6358683 (Proceedings of the National Academy of Sciences of the …, 2019) can be followed below.

B1: C05 V110P (antibody, V domains shown)
VH: QVQLQESGGGLVQPGESLRLSCVGSGSSFGESTLSYYAVSWVRQAPGKGLEWLSIINAGGGDIDYADSVEGRFTISRDNSKETLYLQMTNLRVEDTGVYYCAKHMSMQQVPSAGWERADLVGDAFDVWGQGTMVTVSS
VL: DIQLTQSPSSLSASVGDRVTLTCQASQDIRKFLNWYQQKPGKGPKLLIYDASNLQRGVPSRFSGGGSGTDFTLIISSLQPEDVGTYYCQQYDGLPFTFGGGTKVVIK
B2: C05 V110P-A117E (antibody, V domains shown)
VH: B1 VH with A118E
VL: B1 VL
B3: C05 A117E (antibody, V domains shown)
VH: B1 VH with P111V, A118E
VL: B1 VL

Where a chain is given by its changes, count along the chain named. In names and notes the source's numbering stands.

One assay deals with HA of A/Solomon Islands/03/2006 (Influenza A virus A/Solomon …, UniProt A7Y8I1, strain). The assay can be described thus: ELISA. For orientation: An ELISA detects its analyte on a solid surface through an enzyme-linked reagent.
As to B1, the binding result is “binds”.

In the case of B2, the binding result was “binds”.

Turning to B3, the binding result is “binds”.

Another assay has as its target HA of A/Thailand/CU44/2006 (Influenza A virus A/Thailand/CU44/2006 …, UniProt A7LI25, strain). The assay can be described thus: ELISA.
In the case of B1, the binding result was “binds”.

For the molecule B2, the binding result is reported as “binds”.

As for B3, the binding result was “binds”.
